Experimental data: article PMC12585912

Key:
His101 = His101 (UniProt position 101, RLRALHMKEHP); test: NMR; conditions: 293 K per the general NMR methods; not restated for the pH titration; 150 mM ionic strength; not given for the titration ("All buffers were controlled to 150 mM ionic strength"); the standard NMR buffer is 20 mM Tris, 135 mM KCl, 15 mM NaCl, pH 7.3; bound to specific FGF4 dsDNA (13-mer containing the TTGT motif)
His67 = His67 (UniProt position 67, ENPKMHNSEIS); test: NMR; conditions: 293 K per the general NMR methods, not restated for the pH titration, 150 mM ionic strength, not given for the titration ("All buffers were controlled to 150 mM ionic strength"), the standard NMR buffer is 20 mM Tris, 135 mM KCl, 15 mM NaCl, pH 7.3

Sequence of Transcription factor SOX-2, extended DNA-binding (HMG) domain, Sox2 31-127 (Homo sapiens) (chain, as listed by the source): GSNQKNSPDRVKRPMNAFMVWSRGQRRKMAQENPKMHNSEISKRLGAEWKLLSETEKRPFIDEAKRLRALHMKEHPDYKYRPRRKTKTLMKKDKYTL

## Transcription factor SOX-2, extended DNA-binding (HMG) domain, Sox2 31-127 (Homo sapiens)
His101
  pKa: 4.1
His67; bound to specific FGF4 dsDNA (13-mer containing the TTGT motif)
  pKa: 6.25
His67; free Sox2 31-127, folded
  pKa: 5.76
